From paper doi:10.1101/2021.01.22.427567 (bioRxiv, 2021) come the findings set out here.

The target of this experiment is SARS-CoV-2 S trimer (SARS-CoV-2, wild-type (Wuhan-Hu-1 …, UniProt P0DTC2)). The experiment is described as follows: SPR. In general terms: SPR reads the build-up and loss of mass on a sensor chip optically.

B1: C121 IgG (antibody, V domains shown)
VH: not shown
VL: QSALTQPASVSGSPGQSITISCTGTSSDVGSYNLVSWYQQHPGKAPKLMIYEGSKRPSGVSNRFSGSKSGNTASLTISGLQAEDEADYYCCSYAGSSTLVFGGGTKLTVL
On to B1, for which the binding result was “binds”.
